Data as given in US20230220042A1 (SHANGHAI JIAO TONG UNIVERSITY SCHOOL OF MEDICINE, published 2023).

T1: Biotin-FcγRIIB (human, UniProt P31994 43-217, limits assumed, biotin label)
T1 construct: Soluble labelled protein used to stain and sort the display cells; also called human FcγRIIB; CD32b
T1 sequence (looked up): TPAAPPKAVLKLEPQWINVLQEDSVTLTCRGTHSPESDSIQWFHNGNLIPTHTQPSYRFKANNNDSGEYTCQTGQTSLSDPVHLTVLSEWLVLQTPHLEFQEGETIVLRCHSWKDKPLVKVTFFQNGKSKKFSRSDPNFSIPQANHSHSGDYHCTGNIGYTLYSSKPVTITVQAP


Columns and labels:
human OX40 (human) = human OX40 (human) (UniProt P43489); experiment: cell-based or functional assay
human OX40 (human), sequence (P43489 29-277): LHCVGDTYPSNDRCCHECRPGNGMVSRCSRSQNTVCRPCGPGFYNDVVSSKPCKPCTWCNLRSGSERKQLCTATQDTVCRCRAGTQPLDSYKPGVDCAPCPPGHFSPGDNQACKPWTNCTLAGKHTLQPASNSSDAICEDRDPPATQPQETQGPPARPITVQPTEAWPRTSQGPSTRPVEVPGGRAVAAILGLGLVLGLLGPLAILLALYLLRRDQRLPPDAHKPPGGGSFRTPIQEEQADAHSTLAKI

Biotin-FcγRIIB = biological target: T1, Biotin-FcγRIIB; experiment: NGS of 3T3 display library C2 flow-sorted for FcγRIIB binding

| Binder | enrichment factor, percentage after 3rd sorting/percentage after 2nd sorting (Biotin-FcγRIIB) [ratio] | percentage after 2nd sorting (Biotin-FcγRIIB) [%] | percentage after 3rd sorting (Biotin-FcγRIIB) [%] | enrichment factor, percentage after 1st sorting/percentage before sorting (Biotin-FcγRIIB) [ratio] | enrichment factor, percentage after 2nd sorting/percentage after 1st sorting (Biotin-FcγRIIB) [ratio] | enrichment factor, percentage after 3rd sorting/percentage before sorting (Biotin-FcγRIIB) [ratio] | increased factor, mutant enrichment factor/wild-type enrichment factor (Biotin-FcγRIIB) [ratio] | percentage after 1st sorting (Biotin-FcγRIIB) [%] | percentage before sorting (Biotin-FcγRIIB) [%] | further results |
| --- | --- | --- | --- | --- | --- | --- | --- | --- | --- | --- |
| anti-human OX40 antibody, human IgG2 Fc mutant Mut_24 (V266L/S267E/H268S/E269G/P271T) (antibody, name in EU numbering) heavy: QVQLQESGPGLVKPSGTLSLTCAVSGGSISSSIWWSWVRQPPGKGLEWIGEIHHSGNTNCNPSLKSRVTISIDKSKNQFSLKLTSVTAADTAVYYCARAGTGTTLDYWGQGTLVTVSSASTKGPSVFPLAPCSRSTSESTAALGCLVKDYFPEPVTVSWNSGALTSGVHTFPAVLQSSGLYSLSSVVTVPSSNFGTQTYTCNVDHKPSNTKVDKTVERKCCVECPPCPAPPVAGPSVFLFPPKPKDTLMISRTPEVTCVVVDLESGDTEVQFNWYVDGVEVHNAKTKPREEQFNSTFRVVSVLTVVHQDWLNGKEYKCKVSNKGLPAPIEKTISKTKGQPREPQVYTLPPSREEMTKNQVSLTCLVKGFYPSDIAVEWESNGQPENNYKTTPPMLDSDGSFFLYSKLTVDKSRWQQGNVFSCSVMHEALHNHYTQKSLSLSPGK light: EIVLTQSPGTLSLSPGERATLSCRASQSVSGDYLAWYQQKLGQAPRLLIYGASIRATGIPDRFSGSGSGTDFTLTISKLEPEDFAVYYCQQYGSSPLTFGGGTKVEIKRTVAAPSVFIFPPSDEQLKSGTASVVCLLNNFYPREAKVQWKVDNALQSGNSQESVTEQDSKDSTYSLSSTLTLSKADYEKHKVYACEVTHQGLSSPVTKSFNRGEC | – | – | – | – | – | – | – | – | – | Average increased factor of the activity over wild-type IgG2 of two experiments (human OX40 (human)): 9.75; Average relative activity of two experiments (human OX40 (human)): 0.43; Experiment 1 CFSE fluorescence intensity, 0.01 µg/ml (human OX40 (human)): 912; Experiment 1 CFSE fluorescence intensity, 0.1 µg/ml (human OX40 (human)): 812; Experiment 1 CFSE fluorescence intensity, 1 µg/ml (human OX40 (human)): 816; Experiment 1 average relative activity (human OX40 (human)): 0.36; Experiment 1 relative activity, 0.01 µg/ml (human OX40 (human)): 0.24; Experiment 1 relative activity, 0.1 µg/ml (human OX40 (human)): 0.42; Experiment 1 relative activity, 1 µg/ml (human OX40 (human)): 0.41; Experiment 2 CFSE fluorescence intensity, 0.1 µg/ml (human OX40 (human)): 2050; Experiment 2 CFSE fluorescence intensity, 1 µg/ml (human OX40 (human)): 1650; Experiment 2 average relative activity (human OX40 (human)): 0.53; Experiment 2 relative activity, 0.1 µg/ml (human OX40 (human)): 0.43; Experiment 2 relative activity, 1 µg/ml (human OX40 (human)): 0.64 |
| human IgG2 anti-mouse CD40 surface displayed antibody, V234Q/V266L/S267E/H268S/E269V (antibody, As m1 with the Fc mutations; copies: 2 + 2) light chain (with the P2A rest): DTVLTQSPALAVSPGERVTISCRASDSVSTLMHWYQQKPGQQPKLLIYLASHLESGVPARFSGSGSGTDFTLTIDPVEADDTATYYCQQSWNDPWTFGGGTKLELKRTVAAPSVFIFPPSDEQLKSGTASVVCLLNNFYPREAKVQWKVDNALQSGNSQESVTEQDSKDSTYSLSSTLTLSKADYEKHKVYACEVTHQGLSSPVTKSFNRGECGSGATNFSLLKQAGDVEENPG heavy: EVQLVESDGGLVQPGRSLKLPCAASGFTFSDYYMAWVRQAPTKGLEWVASISYDGSSTYYRDSVKGRFTISRDNAKSTLYLQMDSLRSEDTATYYCGRHSSYFDYWGQGVMVTVSSASTKGPSVFPLAPCSRSTSESTAALGCLVKDYFPEPVTVSWNSGALTSGVHTFPAVLQSSGLYSLSSVVTVPSSNFGTQTYTCNVDHKPSNTKVDKTVERKCCVECPPCPAPPQAGPSVFLFPPKPKDTLMISRTPEVTCVVVDLESVDPEVQFNWYVDGVEVHNAKTKPREEQFNSTFRVVSVLTVVHQDWLNGKEYKCKVSNKGLPAPIEKTISKTKGQPREPQVYTLPPSREEMTKNQVSLTCLVKGFYPSDIAVEWESNGQPENNYKTTPPMLDSDGSFFLYSKLTVDKSRWQQGNVFSCSVMHEALHNHYTQKSLSLSPGKLEPPPSTVSNMATVAVLVVLGAAIVTGAVVAFVMKMRRRNTGGKGGDYALAPGSQTSDLSLPDCKVMVHDPHSLA | 11.4 | 0.01 | 0.09 | – | – | – | – | – | – | – |
| human IgG2 anti-mouse CD40 surface displayed antibody, V266L/S267E/H268S/E269A/P271C (antibody, name in EU numbering, As m1 with the Fc mutations) light chain (with the P2A rest): DTVLTQSPALAVSPGERVTISCRASDSVSTLMHWYQQKPGQQPKLLIYLASHLESGVPARFSGSGSGTDFTLTIDPVEADDTATYYCQQSWNDPWTFGGGTKLELKRTVAAPSVFIFPPSDEQLKSGTASVVCLLNNFYPREAKVQWKVDNALQSGNSQESVTEQDSKDSTYSLSSTLTLSKADYEKHKVYACEVTHQGLSSPVTKSFNRGECGSGATNFSLLKQAGDVEENPG heavy chain: EVQLVESDGGLVQPGRSLKLPCAASGFTFSDYYMAWVRQAPTKGLEWVASISYDGSSTYYRDSVKGRFTISRDNAKSTLYLQMDSLRSEDTATYYCGRHSSYFDYWGQGVMVTVSSASTKGPSVFPLAPCSRSTSESTAALGCLVKDYFPEPVTVSWNSGALTSGVHTFPAVLQSSGLYSLSSVVTVPSSNFGTQTYTCNVDHKPSNTKVDKTVERKCCVECPPCPAPPVAGPSVFLFPPKPKDTLMISRTPEVTCVVVDLESADCEVQFNWYVDGVEVHNAKTKPREEQFNSTFRVVSVLTVVHQDWLNGKEYKCKVSNKGLPAPIEKTISKTKGQPREPQVYTLPPSREEMTKNQVSLTCLVKGFYPSDIAVEWESNGQPENNYKTTPPMLDSDGSFFLYSKLTVDKSRWQQGNVFSCSVMHEALHNHYTQKSLSLSPGKLEPPPSTVSNMATVAVLVVLGAAIVTGAVVAFVMKMRRRNTGGKGGDYALAPGSQTSDLSLPDCKVMVHDPHSLA | 7.11 | 0.95 | 6.76 | 60.5 | 3.84 | 1650 | 1180 | 0.25 | 0 | – |
| human IgG2 anti-mouse CD40 surface displayed antibody, V266L/S267D/H268D/E269D/P271Q (antibody, name in EU numbering, As m1 with the Fc mutations) light chain (with the P2A rest): DTVLTQSPALAVSPGERVTISCRASDSVSTLMHWYQQKPGQQPKLLIYLASHLESGVPARFSGSGSGTDFTLTIDPVEADDTATYYCQQSWNDPWTFGGGTKLELKRTVAAPSVFIFPPSDEQLKSGTASVVCLLNNFYPREAKVQWKVDNALQSGNSQESVTEQDSKDSTYSLSSTLTLSKADYEKHKVYACEVTHQGLSSPVTKSFNRGECGSGATNFSLLKQAGDVEENPG heavy chain: EVQLVESDGGLVQPGRSLKLPCAASGFTFSDYYMAWVRQAPTKGLEWVASISYDGSSTYYRDSVKGRFTISRDNAKSTLYLQMDSLRSEDTATYYCGRHSSYFDYWGQGVMVTVSSASTKGPSVFPLAPCSRSTSESTAALGCLVKDYFPEPVTVSWNSGALTSGVHTFPAVLQSSGLYSLSSVVTVPSSNFGTQTYTCNVDHKPSNTKVDKTVERKCCVECPPCPAPPVAGPSVFLFPPKPKDTLMISRTPEVTCVVVDLDDDDQEVQFNWYVDGVEVHNAKTKPREEQFNSTFRVVSVLTVVHQDWLNGKEYKCKVSNKGLPAPIEKTISKTKGQPREPQVYTLPPSREEMTKNQVSLTCLVKGFYPSDIAVEWESNGQPENNYKTTPPMLDSDGSFFLYSKLTVDKSRWQQGNVFSCSVMHEALHNHYTQKSLSLSPGKLEPPPSTVSNMATVAVLVVLGAAIVTGAVVAFVMKMRRRNTGGKGGDYALAPGSQTSDLSLPDCKVMVHDPHSLA | 3.8 | 0.49 | 1.88 | 122 | 4.07 | 1880 | 1340 | 0.12 | 0 | – |
| human IgG2 anti-mouse CD40 surface displayed antibody, V266L/S267E/E269K/P271G (antibody, name in EU numbering, As m1 with the Fc mutations) light chain (with the P2A rest): DTVLTQSPALAVSPGERVTISCRASDSVSTLMHWYQQKPGQQPKLLIYLASHLESGVPARFSGSGSGTDFTLTIDPVEADDTATYYCQQSWNDPWTFGGGTKLELKRTVAAPSVFIFPPSDEQLKSGTASVVCLLNNFYPREAKVQWKVDNALQSGNSQESVTEQDSKDSTYSLSSTLTLSKADYEKHKVYACEVTHQGLSSPVTKSFNRGECGSGATNFSLLKQAGDVEENPG heavy chain: EVQLVESDGGLVQPGRSLKLPCAASGFTFSDYYMAWVRQAPTKGLEWVASISYDGSSTYYRDSVKGRFTISRDNAKSTLYLQMDSLRSEDTATYYCGRHSSYFDYWGQGVMVTVSSASTKGPSVFPLAPCSRSTSESTAALGCLVKDYFPEPVTVSWNSGALTSGVHTFPAVLQSSGLYSLSSVVTVPSSNFGTQTYTCNVDHKPSNTKVDKTVERKCCVECPPCPAPPVAGPSVFLFPPKPKDTLMISRTPEVTCVVVDLEHKDGEVQFNWYVDGVEVHNAKTKPREEQFNSTFRVVSVLTVVHQDWLNGKEYKCKVSNKGLPAPIEKTISKTKGQPREPQVYTLPPSREEMTKNQVSLTCLVKGFYPSDIAVEWESNGQPENNYKTTPPMLDSDGSFFLYSKLTVDKSRWQQGNVFSCSVMHEALHNHYTQKSLSLSPGKLEPPPSTVSNMATVAVLVVLGAAIVTGAVVAFVMKMRRRNTGGKGGDYALAPGSQTSDLSLPDCKVMVHDPHSLA | 2.94 | 0.42 | 1.22 | 214 | 2.92 | 1840 | 1310 | 0.14 | 0 | – |
| human IgG2 anti-mouse CD40 surface displayed antibody, V266L/S267E/H268S/E269G/P271T (antibody, name in EU numbering, As m1 with the Fc mutations) light chain (with the P2A rest): DTVLTQSPALAVSPGERVTISCRASDSVSTLMHWYQQKPGQQPKLLIYLASHLESGVPARFSGSGSGTDFTLTIDPVEADDTATYYCQQSWNDPWTFGGGTKLELKRTVAAPSVFIFPPSDEQLKSGTASVVCLLNNFYPREAKVQWKVDNALQSGNSQESVTEQDSKDSTYSLSSTLTLSKADYEKHKVYACEVTHQGLSSPVTKSFNRGECGSGATNFSLLKQAGDVEENPG heavy chain: EVQLVESDGGLVQPGRSLKLPCAASGFTFSDYYMAWVRQAPTKGLEWVASISYDGSSTYYRDSVKGRFTISRDNAKSTLYLQMDSLRSEDTATYYCGRHSSYFDYWGQGVMVTVSSASTKGPSVFPLAPCSRSTSESTAALGCLVKDYFPEPVTVSWNSGALTSGVHTFPAVLQSSGLYSLSSVVTVPSSNFGTQTYTCNVDHKPSNTKVDKTVERKCCVECPPCPAPPVAGPSVFLFPPKPKDTLMISRTPEVTCVVVDLESGDTEVQFNWYVDGVEVHNAKTKPREEQFNSTFRVVSVLTVVHQDWLNGKEYKCKVSNKGLPAPIEKTISKTKGQPREPQVYTLPPSREEMTKNQVSLTCLVKGFYPSDIAVEWESNGQPENNYKTTPPMLDSDGSFFLYSKLTVDKSRWQQGNVFSCSVMHEALHNHYTQKSLSLSPGKLEPPPSTVSNMATVAVLVVLGAAIVTGAVVAFVMKMRRRNTGGKGGDYALAPGSQTSDLSLPDCKVMVHDPHSLA | 5.2 | 0.24 | 1.23 | 32.7 | 9.34 | 1590 | 1130 | 0.03 | 0 | – |
